The target in this assay is Recombinant human TNFα (R&D Systems) (human) (UniProt P01375).
Sequence of Recombinant human TNFα (R&D Systems) (human) (P01375 77-233 limits assumed): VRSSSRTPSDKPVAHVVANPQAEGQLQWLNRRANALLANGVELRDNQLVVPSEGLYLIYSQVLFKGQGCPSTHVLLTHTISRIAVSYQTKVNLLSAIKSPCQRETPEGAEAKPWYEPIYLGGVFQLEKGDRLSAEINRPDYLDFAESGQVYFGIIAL

Regarding etanercept (Fc fusion), the IC50, inhibition of TNFα-induced Caspase 3 activity in U937 cells came out at 0.144 nM.

The record behind these values is patent US20240026036A1.
